This note sets out measurements from article PMC10118082 (PLOS ONE, 2023).

Test [1] addresses T1, human complement component 5 (C5) (Homo sapiens, UniProt P01031). As to the kind of experiment: cell-based or functional assay.
Test [2] deals with T1, human complement component 5 (C5). As to the kind of experiment: SEC-MALS; antibody (700 nM) plus C5 (400 nM) incubated about 30 min at room temperature in PBS; Bio SEC-5 1000 A column run in PBS; no eculizumab. The note with it: both partners purified. Background: In gel filtration, larger molecules generally elute earlier.

Where “and” joins values, the source holds several entries; their conditions need not be identical. Identical values can stand only once.

B1: mAb TPP-2799 (antibody, V domains shown)
VH: QVQLVESGGGLVQPGRSLRLSCAASGFTVHSSYYMAWVRQAPGKGLEWVGAIFTGSGAEYKAEWAKGRVTISKDTSKNQVVLTMTNMDPVDTATYYCASDAGYDYPTHAMHYWGQGTLVTVSS
VL: DIQMTQSPSSLSASVGDRVTITCRASQGISSSLAWYQQKPGKAPKLLIYGASETESGVPSRFSGSGSGTDFTLTISSLQPEDFATYYCQNTKVGSSYGNTFGGGTKVEIK
notes: heavy chain of Chugai mAb RO7112689 (crovalimab) as described in CAS Registry Number 1917321-26-6; light chain of Chugai mAb RO7112689 (crovalimab) as described in CAS Registry Number 1917321-26-6; MALS mass alone 154 kDa; also called RO7112689; source: Expi293, transiently expressed, purified (MabSelect SuRe); copies: 2 + 2
As usually defined, the stoichiometry N is a count of units in the complex or per binding partner. For B1, in test [1], the “IC50 of inhibition of classical-pathway hemolysis of antibody-sensitized chicken red blood cells in 20% (v/v) human serum” value turned out to be 30 nM. In addition, in test [2], the “stoichiometry N” value was 1 C5 per TPP-2799 and 2 C5 per TPP-2799.
